Read-outs that look alike come from different tables or passages of the source.
Tests used:
Assay in all cases: cell-based or functional assay
[1] = target: T1, ROR1 expressed on cell surface (Jeko-1 cell line, AMB-LC-0003T and AMB-LC-0002T patient-derived lung cancer … (human, UniProt Q01973 30-937))
[2] = target: T1, ROR1 expressed on cell surface (Jeko-1 …); remark: listed apart in the source
[3] = target: T1, ROR1 expressed on cell surface (Jeko-1 …); remark: listed apart in the source

T1 sequence (Q01973 30-937): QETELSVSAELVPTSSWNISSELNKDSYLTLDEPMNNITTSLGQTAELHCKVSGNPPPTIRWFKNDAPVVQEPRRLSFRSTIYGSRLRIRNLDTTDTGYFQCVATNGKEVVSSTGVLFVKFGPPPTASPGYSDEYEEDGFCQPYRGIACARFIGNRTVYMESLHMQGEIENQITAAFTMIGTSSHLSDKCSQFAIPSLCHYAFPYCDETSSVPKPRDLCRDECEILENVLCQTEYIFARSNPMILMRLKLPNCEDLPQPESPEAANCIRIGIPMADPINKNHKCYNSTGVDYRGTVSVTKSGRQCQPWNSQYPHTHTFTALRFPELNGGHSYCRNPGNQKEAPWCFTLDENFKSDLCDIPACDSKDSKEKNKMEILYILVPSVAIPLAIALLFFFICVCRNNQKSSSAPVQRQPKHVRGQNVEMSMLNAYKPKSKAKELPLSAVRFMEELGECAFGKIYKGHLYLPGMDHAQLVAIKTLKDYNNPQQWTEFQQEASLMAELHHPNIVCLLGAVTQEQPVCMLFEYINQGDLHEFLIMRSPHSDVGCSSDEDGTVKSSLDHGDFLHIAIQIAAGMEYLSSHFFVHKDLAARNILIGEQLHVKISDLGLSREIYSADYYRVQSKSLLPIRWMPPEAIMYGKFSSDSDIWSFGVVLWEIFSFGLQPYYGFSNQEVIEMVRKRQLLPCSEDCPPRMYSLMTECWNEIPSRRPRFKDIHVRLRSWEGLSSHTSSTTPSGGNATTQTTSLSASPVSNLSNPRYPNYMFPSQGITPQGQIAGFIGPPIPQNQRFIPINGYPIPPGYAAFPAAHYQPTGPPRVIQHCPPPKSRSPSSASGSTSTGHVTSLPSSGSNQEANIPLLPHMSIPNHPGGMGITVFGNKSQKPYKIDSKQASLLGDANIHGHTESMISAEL

B1: P015042-vc-PAB-MMAE (antibody, IgG1, V domains shown)
VH: EVQLLESGGGLVQPGGSLRLSCAASGFTFSDYAMSWVRQAPGKGLEWVSVISSDGGSIYYADSVKGRFTISRDNSKNTLYLQMNSLRAEDTAVYYCAKDRSRDMEVDFDYWGQGTLVTVSS
VL: QSVLTQPPSASGTPGQRVTISCSGSSSNIGSNYVTWYQQLPGTAPKLLIYDSSQRPSGVPDRFSGSKSGTSASLAISGLRSEDEADYYCGTWDYSLSGYVFGGGTKLTVL
modifications: maleimidocaproyl-valine-citrulline-p-aminobenzyloxycarbonyl monomethyl auristatin E on cysteine sulfhydryls of reduced disulfides; positions not given; average 3.3 drugs per antibody
Fold Change of IC50, AMB-LC-0002T/AMB-LC-0003T [1]: 56.3 fold | IC50 (nM), spheroid volume after 6 days of treatment, AMB-LC-0003T (high ROR1 expression) [1]: 2.88 nM | IC50 (nM), spheroid volume, AMB-LC-0002T (very low ROR1 expression) [1]: 162 nM | IC50, spheroid volume, AMB-LC-0002T (low ROR1 expression) [2]: ≥ 100 nM | Fold Change of IC50, AMB-LC-0002T/AMB-LC-0003T [3]: 81.4 fold | IC50 (nM), spheroid volume, AMB-LC-0002T (low ROR1 expression) [3]: 187 nM | IC50 (nM), spheroid volume, AMB-LC-0003T (high ROR1 expression) [3]: 2.3 nM
